Laboratory results reported in patent US20250326834A1, “COMBINATION THERAPY OF CLAUDIN 18.2 ANTAGONIST AND PD-1/PD-L1 AXIS INHIBITOR” (SUZHOU TRANSCENTA THERAPEUTICS CO., LTD., priority 2021, published 2025).

Test system: NCI-H460-CLDN18.2 xenograft tumor
Assay: NCI-H460-CLDN18.2 and hPBMC co-inoculation xenograft tumor model
Format: in vivo, NOD-SCID mice
Conditions: 10 mg/kg each antibody, i.p. twice a week for 5 weeks
Excerpt: NCI-H460-CLDN18.2 was purchased from Kyinno (Cat #, KC-1450), which was stablely transfected with human CLDN18.2 expression. The tumor cells were routinely sub-cultured twice weekly by trypsin-EDTA treatment (Hyclone). The cells growing in an exponential growth phase were harvested and counted for tumor inoculation. Female SPF grade NOD-SCID mice were inoculated with 3×10^6 NCI-H460-CLDN18.2 cells and 1.5×10^6 human PBMC along with 50% matrigel. Animal were selected and randomized to 4 groups (n=10), approximately 4 hours post inoculation. Animals were then treated with 10 mg/kg Isotype control, 10 mg/kg anti-CLDN18.2 antibody 18B10, 10 mg/kg anti-PD-L1 antibody AM4B6, 10 mg/kg anti-CLDN18.2 antibody 18B10 and 10 mg/kg anti-PD-L1 antibody AM4B6 twice a week for 5 weeks by i.p. injection. Tumor size was measured twice or triple times a week in two dimensions using a caliper (INSIZE) and the volume was expressed in mm^3 using the formula: V=0.5 a×b^2 where a and b are the long and short diameters of the tumor, respectively. Results were analyzed using Prism GraphPad and expressed as mean±S.E.M. Comparisons between two groups were made by T-test, and the difference is considered significant if p is *<0.05 and **<0.01.

B1: AM4B6: anti-PD-L1 antibody; VH SEQ ID NO: 17, VL SEQ ID NO: 18 (antibody, V domains shown)
VH: QVQLVQSGAEVKKPGASVKVSCKASGYVFTDYYMNWVRQAPGQSLEWMGDINPNNAETLYNHKFKGRVTVTVDKSISTAYMELSRLRSDDTAVYYCVKWGDGPFAYWGQGTLVTVSS
VL: DIQMTQSPSSLSASVGDRVTITCKASQNVGAAVAWYQQKPGKAPKLLIYSVSDRYTGVPSRFSGSGSGTDFTLTISSLQPEDIATYYCQQYSNYPTFGQGTKLEIK
effect on tumor growth compared with isotype control: no significant impact on tumor growth
TGI (Day 29): 17.6%
Tumor size (Day 29, mean ± S.E.M.): 557.06 ± 67.47 mm^3
